How the values were obtained:
[1] = system: substrate designed for detection of Caspase 3 (-DEVD′GIN- cleavage)
[2] = system: substrate designed for detection of Granzyme B (-VGPD′FGR- cleavage)

Substance | Fluorogenic activity of indicated substrates measured in solution after addition of recombinant enzyme [1] | Fluorogenic activity of indicated substrates measured in solution after addition of recombinant enzyme [2]
recombinant Caspase 3 | selective cleavage of substrates designed for detection of ... Caspase 3 (-DEVD′GIN- cleavage) protease activities | 
recombinant Granzyme B |  | selective cleavage of substrates designed for detection of Granzyme B (-VGPD′FGR- cleavage)

— US20070184493
